# Data taken from IntAct's records for PubMed 18323775.
# B1: Zinc finger protein-like 1 (Mus musculus), Q9DB43 (parent)
# chain: MGLCKCPKRKVTNLFCFEHRVNVCEHCLVANHAKCIVQSYLQWLQDSDYNPNCRLCNTPLASRETTRLVCYDLFHWACINERAAQLPRNTAPAGYQCPSCNGPIFPPANLAGPVASALREKLATVNWARAGLGLPLIDEVISPEPEPLNSSDFSDWSSFNATTTSVQEERASTPSAPAFYSQAPRPPPSPSRPEQHTVIHMGSTEALAHAPRKVYDTRDDDRTAGIHGDCDDDKYRRRPALGWLAQLLRSRAGSRKRPLTLLQRAGLLLLLGLLGFLALLALMSRLGRAAADSDPNLDPLMNPHIRVGPS
# partner: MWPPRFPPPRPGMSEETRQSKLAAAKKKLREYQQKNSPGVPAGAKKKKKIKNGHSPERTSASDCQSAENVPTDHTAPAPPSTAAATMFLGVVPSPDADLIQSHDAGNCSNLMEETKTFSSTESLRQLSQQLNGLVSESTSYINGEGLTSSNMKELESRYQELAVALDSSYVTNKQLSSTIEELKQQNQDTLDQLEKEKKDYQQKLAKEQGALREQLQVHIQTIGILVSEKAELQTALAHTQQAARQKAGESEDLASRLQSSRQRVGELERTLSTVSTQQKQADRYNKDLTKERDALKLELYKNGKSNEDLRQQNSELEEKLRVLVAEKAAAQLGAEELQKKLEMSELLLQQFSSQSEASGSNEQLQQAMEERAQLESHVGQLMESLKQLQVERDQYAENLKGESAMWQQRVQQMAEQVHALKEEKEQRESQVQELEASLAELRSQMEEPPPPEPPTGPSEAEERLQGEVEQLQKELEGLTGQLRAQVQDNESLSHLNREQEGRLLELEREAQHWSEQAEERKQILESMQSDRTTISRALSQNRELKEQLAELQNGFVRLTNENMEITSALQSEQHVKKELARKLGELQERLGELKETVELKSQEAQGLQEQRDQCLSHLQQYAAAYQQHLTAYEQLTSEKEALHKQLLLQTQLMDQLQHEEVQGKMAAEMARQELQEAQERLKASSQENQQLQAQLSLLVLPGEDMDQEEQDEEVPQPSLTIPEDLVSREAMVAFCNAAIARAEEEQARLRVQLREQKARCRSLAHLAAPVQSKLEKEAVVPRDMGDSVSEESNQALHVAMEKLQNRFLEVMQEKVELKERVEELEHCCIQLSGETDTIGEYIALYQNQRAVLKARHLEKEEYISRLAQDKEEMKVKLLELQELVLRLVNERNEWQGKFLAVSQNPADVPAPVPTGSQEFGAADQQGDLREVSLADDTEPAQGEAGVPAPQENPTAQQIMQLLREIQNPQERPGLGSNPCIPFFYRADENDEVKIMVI
# Variants of: B1
# Settings: with goga2_rat Golga2, Q62839
row,effect of a mutation on the interaction,Variant
1,decreasing interaction,MGLCKCPKRKVTNLFCFEHRVNVCEHALVANHAKCIVQSYLQWLQDSDYNPNCRLCNTPLASRETTRLVCYDLFHWACINERAAQLPRNTAPAGYQCPSCNGPIFPPANLAGPVASALREKLATVNWARAGLGLPLIDEVISPEPEPLNSSDFSDWSSFNATTTSVQEERASTPSAPAFYSQAPRPPPSPSRPEQHTVIHMGSTEALAHAPRKVYDTRDDDRTAGIHGDCDDDKYRRRPALGWLAQLLRSRAGSRKRPLTLLQRAGLLLLLGLLGFLALLALMSRLGRAAADSDPNLDPLMNPHIRVGPS [C27A]

# Variants of: B1
# Settings: with goga2_rat Golga2, Q62839
# Remark: another data set of the same source
row,effect of a mutation on the interaction,Variant
1,disrupting interaction,MGLCKCPKRKVTNLFCFEHRVNVCEHALVANHAKCIVQSYLQWLQDSDYNPNCRLCNTPLASRETTRLVCYDLFHWACINERAAQLPRNTAPAGYQCPSCNGPIFPPANLAGPVASALREKLATVNWARAGLGLPLIDEVISPEPEPLNSSDFSDWSSFNATTTSVQEERASTPSAPAFYSQAPRPPPSPSRPEQHTVIHMGSTEALAHAPRKVYDTRDDDRTAGIHGDCDDDKYRRRPALGWLAQLLRSRAGSRKRPLTLLQRAGLLLLLGLLGFLALLALMSRLGRAAADSDPNLDPLMNPHIRVGPS [C27A]

# Variants of: B1
# Settings: with goga2_rat Golga2, Q62839
# Remark: another data set of the same source
row,effect of a mutation on the interaction,Variant
1,decreasing interaction,MGLCKCPKRKVTNLFCFEHRVNVCEHCLVANHAKCIVQSYLQWLQDSDYNPNARLCNTPLASRETTRLVCYDLFHWACINERAAQLPRNTAPAGYQCPSCNGPIFPPANLAGPVASALREKLATVNWARAGLGLPLIDEVISPEPEPLNSSDFSDWSSFNATTTSVQEERASTPSAPAFYSQAPRPPPSPSRPEQHTVIHMGSTEALAHAPRKVYDTRDDDRTAGIHGDCDDDKYRRRPALGWLAQLLRSRAGSRKRPLTLLQRAGLLLLLGLLGFLALLALMSRLGRAAADSDPNLDPLMNPHIRVGPS [C53A]

# Variants of: B1
# Settings: with goga2_rat Golga2, Q62839
# Remark: another data set of the same source
row,effect of a mutation on the interaction,Variant
1,disrupting interaction,MGLCKAPKRKVTNLFCFEHRVNVCEHCLVANHAKCIVQSYLQWLQDSDYNPNCRLCNTPLASRETTRLVCYDLFHWACINERAAQLPRNTAPAGYQCPSCNGPIFPPANLAGPVASALREKLATVNWARAGLGLPLIDEVISPEPEPLNSSDFSDWSSFNATTTSVQEERASTPSAPAFYSQAPRPPPSPSRPEQHTVIHMGSTEALAHAPRKVYDTRDDDRTAGIHGDCDDDKYRRRPALGWLAQLLRSRAGSRKRPLTLLQRAGLLLLLGLLGFLALLALMSRLGRAAADSDPNLDPLMNPHIRVGPS [C6A]
